Reference: patent US20230257454A1 (STAIDSON BEIJING BIOPHARMACEUTICALS, published 2023)

Assays:
[1] = molecular target: T1, human C5a (source not stated) (human, UniProt P01031 678-751); experiment: cell-based or functional assay
T1 sequence: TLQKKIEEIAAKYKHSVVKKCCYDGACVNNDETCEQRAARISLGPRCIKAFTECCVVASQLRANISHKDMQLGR

human endogenous C5a = molecular target: T2, human endogenous C5a (human, UniProt P01031 678-751, limits assumed); experiment: cell-based or functional assay
T2 sequence: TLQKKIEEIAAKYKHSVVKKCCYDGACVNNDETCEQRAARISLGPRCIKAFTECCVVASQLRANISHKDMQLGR

C5a-A63R = molecular target: T3, C5a-A63R; experiment: ELISA on the coated C5a protein, antibody titrated, OD410
T3 single chain: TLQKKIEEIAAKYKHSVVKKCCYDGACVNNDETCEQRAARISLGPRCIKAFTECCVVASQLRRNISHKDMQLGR

C5a-S66A = molecular target: T4, C5a-S66A; experiment: as above
T4 single chain: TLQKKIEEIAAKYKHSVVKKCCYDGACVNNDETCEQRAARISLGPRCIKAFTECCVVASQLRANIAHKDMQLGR

C5a-S66R = molecular target: T5, C5a-S66R; experiment: as above
T5 single chain: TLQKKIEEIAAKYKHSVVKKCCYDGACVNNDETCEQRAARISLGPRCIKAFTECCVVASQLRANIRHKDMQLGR

C5a-H67A = molecular target: T6, C5a-H67A; experiment: as above
T6 single chain: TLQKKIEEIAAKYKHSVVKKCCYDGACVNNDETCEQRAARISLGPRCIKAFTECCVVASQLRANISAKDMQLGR

C5a-K68A = molecular target: T7, C5a-K68A; experiment: as above
T7 single chain: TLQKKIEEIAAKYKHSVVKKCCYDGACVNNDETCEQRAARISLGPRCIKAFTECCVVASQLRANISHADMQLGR

C5a-D69A = molecular target: T8, C5a-D69A; experiment: as above
T8 single chain: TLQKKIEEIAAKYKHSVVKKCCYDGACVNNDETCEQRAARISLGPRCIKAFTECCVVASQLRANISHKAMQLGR

C5a-M70A = molecular target: T9, C5a-M70A; experiment: as above
T9 single chain: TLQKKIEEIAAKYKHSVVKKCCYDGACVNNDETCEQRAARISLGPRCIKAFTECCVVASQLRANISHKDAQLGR

C5a-Q71A = molecular target: T10, C5a-Q71A; experiment: as above
T10 single chain: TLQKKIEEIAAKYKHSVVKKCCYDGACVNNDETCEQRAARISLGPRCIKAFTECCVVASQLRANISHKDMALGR

C5a-L72A = molecular target: T11, C5a-L72A; experiment: as above
T11 single chain: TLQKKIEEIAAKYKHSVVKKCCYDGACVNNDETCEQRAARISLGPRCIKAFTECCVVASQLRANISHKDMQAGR

[2] = molecular target: T1, human C5a (source not stated); experiment: ELISA on the coated protein, biotinylated Cab42 titrated, SA-HRP, OD410
[3] = molecular target: T12, native full-length human complement component C5 (human, UniProt P01031 19-673; P01031 678-1676); experiment: ELISA, plate coated with human native C5, full-length antibody titrated, OD410
T12 construct: mature; The native protein has two disulfide-linked chains (alpha and beta) made from one precursor; also called human native C5
T12 sequence (P01031 19-673 limits assumed, one chain of several): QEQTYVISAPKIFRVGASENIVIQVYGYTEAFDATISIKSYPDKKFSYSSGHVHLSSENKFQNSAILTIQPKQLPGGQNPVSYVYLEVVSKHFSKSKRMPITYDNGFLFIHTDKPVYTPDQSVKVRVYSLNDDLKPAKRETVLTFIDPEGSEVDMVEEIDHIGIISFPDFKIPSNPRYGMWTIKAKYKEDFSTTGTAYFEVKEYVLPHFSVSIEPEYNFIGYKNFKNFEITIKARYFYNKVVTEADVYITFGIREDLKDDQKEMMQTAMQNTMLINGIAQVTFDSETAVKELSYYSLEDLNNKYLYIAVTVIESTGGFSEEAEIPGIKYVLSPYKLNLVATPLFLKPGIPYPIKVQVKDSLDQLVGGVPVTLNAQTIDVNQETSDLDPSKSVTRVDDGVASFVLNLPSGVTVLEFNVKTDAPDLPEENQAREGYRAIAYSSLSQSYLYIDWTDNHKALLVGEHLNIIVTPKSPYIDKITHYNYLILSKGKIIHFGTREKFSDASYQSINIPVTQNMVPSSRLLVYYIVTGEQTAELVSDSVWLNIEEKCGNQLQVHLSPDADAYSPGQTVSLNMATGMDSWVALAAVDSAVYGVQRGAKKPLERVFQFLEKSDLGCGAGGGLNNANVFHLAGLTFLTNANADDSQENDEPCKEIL

B1: Cab42-IgG1 (antibody, V domains shown)
VH: EMQLVESGGGLVQPGGSLRLSCAASGFTFSDYYMQWVRQAPGKGPEWVGLIRNKAVGETTQYAASVKGRFTISRDDSKNSVYLQMNSLKTEDTAVYYCVSRAGPPGLSWGQGVLVTVSS
VL: DIVMTQSPLSLPVTPGEPASISCRSSQSLLASDAYNYIDWYLQKPGQSPQLLIYGGSNRASGVPDRFSGSGSGTDFTLKISRVEAEDVGVYFCLQHRALPPTFGQGTKLEIK
notes: Full-length human IgG1; It was biotinylated in the peptide-Fc ELISA
With B1 the “ROS IC50” value [1] was 0.78 nM, the “eC5a IC50(nM), CD11b up-regulation on human neutrophils in whole blood” value (human endogenous C5a) was 2.05 nM and the “eC5a+50*C5 IC50(nM), CD11b up-regulation on human neutrophils in whole blood with 50 times more C5” value (human endogenous C5a) was 31 nM. B1: binds (C5a-A63R); binds (C5a-S66A); binds (C5a-S66R). B1: binds (C5a-H67A); binds (C5a-K68A); binds (C5a-D69A). B1: binds (C5a-M70A); binds (C5a-Q71A); binds (C5a-L72A). The “EC50 (read off the curve)” value [2] was roughly 30 ng/w and the “EC50 (read off the curve)” value [3] was roughly 10 ng/mL.
